Columns and labels:
[1] = target: T1, human TIGIT on activated human primary T cells (human, UniProt Q495A1 22-244); test: FACS, activated human T cells
T1 construct: also called Human T cell
T1 sequence: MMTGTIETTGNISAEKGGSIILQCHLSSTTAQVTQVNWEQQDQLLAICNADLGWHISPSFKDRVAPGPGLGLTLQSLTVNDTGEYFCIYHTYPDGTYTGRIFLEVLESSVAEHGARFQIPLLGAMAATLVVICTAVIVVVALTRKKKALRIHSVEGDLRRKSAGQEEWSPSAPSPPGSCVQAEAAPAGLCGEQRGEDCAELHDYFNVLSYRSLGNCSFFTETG
Procedure: The OMT- and SD-derived anti-TIGIT clones were also tested for binding to human primary T cells by FACS analysis. Human PBMC were activated for with plate-bound anti-CD3 (5 μg/ml) and soluble anti-CD28 (2 μg/ml) for 2 days as described in Yu et al. Nature Immunology. 10: 48-57, 2009, which is incorporated herein by reference in its entirety. Cells were then washed and incubated with incubated with each anti-TIGIT antibody at the indicated concentrations and then detected via a FITC-labeled anti-hIgG antibody. Cells were also stained with anti-CD4, anti-CD8, and anti-CD25 (BD bioscience). Human CD4+(CD25+CD4+) and human CD8+(CD25+CD8+) T cells were assessed for binding by the anti-TIGIT clones by FACS. All samples were acquired on LSR-II or LSR-Fortessa instruments (BD Biosciences) and analyzed using FlowJo software (Treestar).

[2] = target: T2, full-length human TIGIT on CHO cells (human, UniProt Q495A1 22-244); test: FACS, CHO cells expressing TIGIT
T2 construct: also called CHO-hTIGIT; hu TIGIT
T2 sequence: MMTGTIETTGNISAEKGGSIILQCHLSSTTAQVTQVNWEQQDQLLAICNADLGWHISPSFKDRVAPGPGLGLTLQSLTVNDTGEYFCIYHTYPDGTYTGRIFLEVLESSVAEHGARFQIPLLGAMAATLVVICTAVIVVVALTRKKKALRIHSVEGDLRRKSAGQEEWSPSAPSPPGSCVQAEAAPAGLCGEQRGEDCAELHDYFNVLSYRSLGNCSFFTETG

[3] = target: T3, cynomolgus TIGIT on CHO cells (cynomolgus monkey, UniProt A0A7N9I9V4 89-312); test: FACS blocking assay: labelled PVR-Fc (blocked ligand; text: cyPVR, scheme of FIG. 4A prints hPVR.Fc) on CHO cells expressing cyno TIGIT
T3 construct: whole, on cells; also called CHO-cyTIGIT; cyTIGIT
T3 sequence (A0A7N9I9V4 entry or part of it): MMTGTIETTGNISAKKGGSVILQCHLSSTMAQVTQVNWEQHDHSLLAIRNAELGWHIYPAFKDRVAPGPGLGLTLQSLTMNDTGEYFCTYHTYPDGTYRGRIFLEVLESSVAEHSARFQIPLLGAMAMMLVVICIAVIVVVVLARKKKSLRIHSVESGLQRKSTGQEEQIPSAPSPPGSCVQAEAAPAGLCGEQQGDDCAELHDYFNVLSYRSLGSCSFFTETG
Procedure: (§1) These studies were further validated in CHO-TIGIT PVR blocking experiments in which TIGIT-expressing CHO cells were incubated with labeled PVR-Fc fusion protein in the presence of anti-TIGIT antibody or an human IgG1 control (FIG. 4A).

human TIGIT protein [4] = target: T4, human TIGIT protein (human, UniProt Q495A1 22-141, limits assumed); test: SPR (BIACORE) KD normalized to WT, N=2
T4 construct: Recombinant protein (Genentech) used in ELISA screening and as SPR analyte; also called TIGIT antigen
T4 sequence: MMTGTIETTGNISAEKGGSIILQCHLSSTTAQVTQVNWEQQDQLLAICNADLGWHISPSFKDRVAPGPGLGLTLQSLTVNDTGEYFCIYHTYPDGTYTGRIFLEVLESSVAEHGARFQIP

[5] = target: T5, mu TIGIT (target named for 10A7 in the heads of Tables 6 and 7) (mu (mouse), UniProt P86176 29-249, limits assumed); test: FACS, PVR-Fc on CHO-TIGIT cells; competitor PVR-Fc
T5 construct: Only the column head says mu TIGIT; the text describes no mouse TIGIT cells
T5 sequence (looked up): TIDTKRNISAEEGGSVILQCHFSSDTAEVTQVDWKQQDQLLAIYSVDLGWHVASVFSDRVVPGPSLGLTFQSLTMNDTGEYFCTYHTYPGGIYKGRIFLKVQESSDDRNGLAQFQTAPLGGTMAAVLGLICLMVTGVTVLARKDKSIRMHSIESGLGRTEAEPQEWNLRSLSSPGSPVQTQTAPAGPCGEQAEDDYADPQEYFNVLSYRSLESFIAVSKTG
Procedure: as §1

[6] = target: cynomolgus monkey (cyno) TIGIT protein (cynomolgus monkey, UniProt A0A7N9I9V4 89-209); test: SPR, bivalent affinity
Sequence of cynomolgus monkey (cyno) TIGIT protein (A0A7N9I9V4 entry or part of it): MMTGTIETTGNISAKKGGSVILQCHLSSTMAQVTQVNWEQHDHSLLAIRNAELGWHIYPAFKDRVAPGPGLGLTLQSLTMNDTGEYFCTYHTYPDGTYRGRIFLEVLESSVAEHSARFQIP

human TIGIT protein [7] = target: T4, human TIGIT protein; test: SPR, bivalent affinity
[8] = target: T6, cynomolgus TIGIT-AviFlag-biotin (cynomolgus monkey, UniProt A0A7N9I9V4 89-209, biotin); test: Block ELISA Cyno PVR-Fc:Bio-TIGIT-AviFlag (blocked ligand cyno PVR-Fc)
T6 construct: also called cyno TIGIT-AviFlag-biotin
Procedure: To test for the ability of the clones to block the TIGIT-PVR interaction, a blocking ELISA assay was used. Briefly, recombinant human PVR-Fc fusion protein, cynomolgus monkey PVR-Fc fusion protein, or mouse PVR-Fc fusion protein was coated at 4 μg/ml at 25 μl/well in phosphate-buffered saline (PBS, pH 7.0) onto 384-well Maxisorp microtiter plates (NUNC, Denmark) and incubated overnight at 4° C. The coating solution was then discarded and the plate was blocked using 0.5% bovine serum albumin (BSA) in PBS at 80 μl/well and incubated with gentle agitation for 1 hour. Titration curves of anti-TIGIT and Fab isotype control antibodies were diluted in assay buffer (PBS, 0.5% BSA, 0.05% Tween 20) using 12 serial 2.5-fold dilutions (40000-1.7 ng/mL). […] The plate was then washed 6× with wash buffer and bound human TIGIT-AviFlag-biotin, cyno TIGIT-AviFlag-biotin, or mouse TIGIT-His was detected by adding 25 μl/well of horseradish peroxidase-conjugated streptavidin (1:10000, Amersham, UK) or horseradish peroxidase-conjugated mouse anti-His (1:2500, Qiagen, Germany) diluted in assay buffer. […] Absorbance was read at 450 nm on a […] ASCENT® microtiter plate reader (Thermo Labsystems, Helsinki, Finland). Fit curves were plotted from the resulting optical density values from the ELISA plates and IC50s were calculated using Genedata Screener software (Genedata, Switzerland).

EC50 [1] [nM] | EC50 [2] [nM] | IC50 (read off the curve) [3] [nM] | Binding affinity drop vs. WT (human TIGIT protein [4]) [fold] | IC50 [5] [nM] | Kd [6] [nM] | Kd (human TIGIT protein [7]) [nM] | IC50 [8] [nM] | Binder
2.63 | 3.04 | ~0.3 | 1 | – | – | – | – | 7.4A3.C96S.Q1E (antibody, V domains shown, also called 7.4A3.Q1E.C96S) VH: EVQLVQSGSDLKKPGASVRVSCKASGYTFTSYPMNWVRQAPGHGLEWMGWINTNTGNPTYVQGFTGRFVFSLDTSVNTAYLQISSLKAEDTAVYFCARTGGHTYDSYAFDVWGQGTMVTVSS VL: DIQLTQSPTFLSASVGDRVTITCRASQVISSSLAWYQQNPGKAPKLLIYAASTLQSGVPSRFSGSGSGTEFTLTISSLQPEDFVTYYCQHLHGYPSNFGQGTKVEIK
– | – | – | – | 0.07 | – | – | – | 10A7 (antibody, V domains shown) VH: EVQLVESGGGLTQPGKSLKLSCEASGFTFSSFTMHWVRQSPGKGLEWVAFIRSGSGIVFYADAVRGRFTISRDNAKNLLFLQMNDLKSEDTAMYYCARRPLGHNTFDSWGQGTLVTVSS VL: DIVMTQSPSSLAVSPGEKVTMTCKSSQSLYYSGVKENLLAWYQQKPGQSPKLLIYYASIRFTGVPDRFTGSGSGTDYTLTITSVQAEDMGQYFCQQGINNPLTFGDGTKLEIKR
– | – | ~0.6 | 1 | – | 0.36 | ≤ 0.019 | – | 4.1D3 (antibody, V domains shown, OMT rat-derived human antibody; also called 4.1D3.Q1) VH: QVQLQQSGPGLVKPSQTLSLTCAISGDSVSSNSAAWNWIRQSPSRGLEWLGKTYYRFKWYSDYAVSVKGRITINPDTSKNQFSLQLNSVTPEDTAVFYCTRESTTYDLLAGPFDYWGQGTLVTVSS VL: not shown
1.36 | 1.04 | – | – | – | – | – | 2.6 | 4.1D3.Q1E (antibody, V domains shown) VH: EVQLQQSGPGLVKPSQTLSLTCAISGDSVSSNSAAWNWIRQSPSRGLEWLGKTYYRFKWYSDYAVSVKGRITINPDTSKNQFSLQLNSVTPEDTAVFYCTRESTTYDLLAGPFDYWGQGTLVTVSS VL: not shown

Reference: US20220064286A1 (Genentech, published 2022)
